Here are results for one substance from CN101627111A.

This test concerns the target Fcγ受体(FcγR). The test can be described thus: cell-based or functional assay.

For “2C11 huG1, HEK (145-2C11 variable regions on human IgG1/kappa, expressed in HEK 293E cells) (from UniProt P01857 1-330) (antibody)”, the T cell activation in vivo (markers on splenocytes of dosed Balb/c mice, flow cytometry) was 4 倍.
